The source of these data is patent US6602687B1, “DNA encoding human ciliary neurotrophic factor and method for producing the protein encoded thereby” (Regeneron Pharmaceuticals, Inc., priority 1989, dated 2003).

One experiment concerns hippocampal neurons. Kind of experiment: Glutamate-induced toxicity in hippocampal cultures (MTT assay). The class given is cell-based, rat. As to conditions: in the presence of CNTF (10 ng/ml). How it is done:
FIG. 38. Protective effect of CNTF on glutamate-induced toxicity in hippocampal cultures. […] Glutamate at various concentations (100-1000 uM) was added for 15 minutes, after which the cells were cultured in the absence of glutamate or CNTF for 20 h. Survival of cells at the end of the culture period was assessed by MTT assay based on the conversion of MTT (3-(4,5-dimethylthiazol-2-yl)-2,5-diphenyl tetrazolium bromide) to a purple product by vital cells. MTT dye was added to a final concentration of 0.5 mg/ml. Dyes taken up by live cells were solubilized by the addition of 0.08N HCI in isopropranol 5 hours later, and O.D. (570-650 nm) was measured.
The effect of CNTF on GABAergic neurons was dependent on the density at which the cells were plated. […] This may be due to an elevated level of neurotrophic factors in high density cultures. […] We have assessed the neurotoxic effects of various concentrations of glutamate (10-1000 μM) by means of a calorimetric MTT assay, as shown in FIG. 38. At a concentration of 1 mM, glutamate reduced cell survival to approximately 10%. In the presence of CNTF ([…]), cell survival following exposure to glutamate was enhanced.
A general note: Formazan colour is commonly taken as a measure of viable cells.

Experiment [1] concerns Mediodorsal (MD) spinal cord neurons. Description: E14 rat mediodorsal spinal cord neuron cultures in defined medium. Format: cell-based. The source says:
Sprague-Dawley rats (HSD) were used for all experiments. Pregnant rats were sacrificed by carbon dioxide asphyxiation, and the embryos were rapidly removed and placed in ice-cold Puck's saline G for further dissection.
Spinal cords were removed aseptically from rat embryos on the 14th day of gestation. The spinal cord was severed caudal to the bulb, freed of sensory ganglia and meninges. The cord was then subdivided into ventral and mediodorsal segments for separate cultures. The cord tissues were minced into small pieces and mechanically dissociated by trituration through a Pasteur pipet in defined culture medium consisting of 50% basal medium Eagle (BME; Gibco) and 50% Ham's nutrient mixture F12 (Gibco) supplemented with glucose (33 mM), glutamine (2 mM, NaHCO3 (15 mM), HEPES (10 mM), insulin (25 μg/ml), transferrin (100 μg/ml) putrescine (60 μM), progesterone (20 nM), Na selenite (30 nM), penicillin G (0.5 μg/ml), streptomycin (0.5 μg/ml), and bovine serum albumin (2.5 μg/ml). Trituration was repeated twice and the supernatants were pooled and filtered through a nylon (Nitex, Tetko) filter (40 μm). Total cell number yielded was determined by hemocytometer counting in the presence of trypan blue. Dissociated ventral cells were then plated at a density of 0.5 million cells/35 mm dish coated with poly-D-lysine (10 μg/ml). Dissociated mediodorsal cells were plated at a density of 1.5 million/35 mm dish coated with poly-D-lysine (10 μg/ml), poly-L-ornithine (10 μg/ml), or poly-L-ornithine with laminin (5 μg/ml). Treatments to these cultures were added at the time of plating. Cultures were maintained at 37° C. in a 95% air/5% CO2 atmosphere at nearly 100% relative humidity. Culture medium was changed every three to four days.

Experiment [2] has as its system E18-19 rat hippocampal neurons. Kind of experiment: Neurofilament protein in hippocampal cultures. The class given is cell-based. Here is the method:
Hippocampi were dissected from E18-19 rat embryos of Sprague-Dawley rats, and collected in F10 medium. The tissues were minced, rinsed twice with F10 medium (Gibco) and trypsinized with 0.25% trypsin (Gibco) for 20 minutes at 37° C. Trypsin was inactivated by the addition of a serum-containing medium composed of minimal essential medium (MEM) supplemented with fetal calf serum (FCS, 10%), glutamine (2 mM), penicillin (25 U/ml) and streptomycin (25 ug/ml). Dissociated cells obtained by gentle trituration were collected and centrifuged at low speed (500 rpm) for 30 seconds. The centrifugation was repeated twice, and the cell pellets were then resuspended in serum-containing medium. The cells were then plated onto 6 mm wells or 35 mm dishes that were coated with polyornithine (10 ug/ml) and laminin (10 ug/ml). In most of the experiments, the cells were plated at a low density of approximately 71,000 cells/cm^2. Five to six hours following the plating of cells, medium was changed to a serum-free medium containing 1% N3 and penicillin-streptomycin (25 units/ml and 25 ug/ml, respectively), at which time CNTF was added. Medium was changed every three to four days, with re-addition of the factor.
Neurofilament protein was quantitated according to the method of Doherty et al. (1984, J. Neurochem. 42:1115-1122), as is described in Section 14.1.3.
The CNTF used in all assays was recombinant rat CNTF, expressed and purified as described in Example Section 12 supra.

B1: CNTF: ciliary neurotrophic factor; recombinant rat CNTF in Sections 10, 15, 17, purified rat sciatic nerve CNTF in Section 11; see endpoint conditions (protein, UniProt P20294 1-200, looked up)
Ciliary neurotrophic factor: MAFAEQTPLTLHRRDLCSRSIWLARKIRSDLTALMESYVKHQGLNKNINLDSVDGVPVASTDRWSEMTEAERLQENLQAYRTFQGMLTKLLEDQRVHFTPTEGDFHQAIHTLMLQVSAFAYQLEELMVLLEQKIPENEADGMPATVGDGGLFEKKLWGLKVLQELSQWTVRSIHDLRVISSHQMGISALESHYGAKDKQM
With B1, the “cell survival following exposure to glutamate” value in the experiment on hippocampal neurons was “enhanced”. Besides, in experiment [1] (20 ng recombinant rat CNTF in 2 μl E. coli extract per ml at plating, by 48 hours), the “survival of MD neurons” value was “increased survival”. In experiment [1] (CNTF 2 μl/ml (recombinant rat, E. coli extract), NGF 50 ng/ml at plating, day 7, Bradford), the μg protein dish is on record as 120 μg protein dish. Moreover, the “protein/dish relative to untreated control and NGF-treated cultures” value in experiment [1] (recombinant rat CNTF in E. coli extract, day 7) worked out at 6 times. Besides, the “effect on neurofilament protein, CNTF added on the third day and cells treated for 8 days” value in experiment [2] (CNTF 10 ng/ml) was “much reduced”. Besides, the “CNTF-induced increase in neurofilament protein, addition delayed by 3 days” value in experiment [2] (CNTF 10 ng/ml, measured on the eighth day) is “similarly diminished”. Besides, the “maximal increase in neurofilament protein” value in experiment [2] (recombinant rat CNTF 10 ng/ml, day 8) is given as “approximately 5 fold”. The “concentration at which neurofilament protein reaches a plateau” value in experiment [2] (recombinant rat CNTF, 8 days) was 0.1 ng/mL.
